Experimental data reported in patent US7892767B2, “Phosphospecific chemokine receptor antibodies” (Washington University in St. Louis, priority 2005, dated 2011).

Biological target: T1, CXCR4 (Homo sapiens, UniProt P61073)
T1 construct: lysates from the glioblastoma cell line LN428, which is known to express high levels of CXCR4; endogenous in cells; host or cells: LN428 GBM cell line
Assay: Stimulated CXCR4 phosphorylation in LN428 GBM cells (western blot)
Format: cell-based
Procedure: Cell Culture, transfections and stimulation of CXCR4 phosphorylation. The U87 glioblastoma multiforme (GBM, grade IV) cell line was obtained from the American Type Culture Collection. The LN428 GBM cell line was a kind gift of Dr Erwin van Meir (Winship Cancer Center, Emory University, Atlanta, Ga.). U87 cells were grown in minimum essential a media supplemented with 10% fetal bovine serum ((FBS), Biomedia, Foster City, Calif.). LN428 cells were grown in DMEM (Fisher, Pittsburgh, Pa.) supplemented with 10% horse serum (Sigma). All cells were grown in the presence of penicillin-streptomycin. The coding sequence for human CXCR4 was obtained by high fidelity RT-PCR (Superscript III Platinum, Invitrogen), and cloned into the expression vector pMSCVneo (Clontech, Palo Alto, Calif.). Transfections were performed with 0.3 μg of plasmid DNA in 20 μl Lipofectamine (Invitrogen)/35 mm^2 tissue culture dish for 9 hours according to the manufacturer's instructions. Cells recovered in Optimem supplemented with 10% FBS. Transfected and non-transfected cells were placed in serum free media for 24 hours prior to treatment with agents to stimulate CXCR4 phosphorylation. Treatment was usually for 0 or 10 minutes with 1 μg/ml CXCL12 (Peprotech, Rocky Hill N.J.), 4 μM 4-Phorbol 12-myristate 13-acetate (PMA) or 10 nM EGF. In some experiments, CXCL12 was washed away and cells were incubated for an additional 20 minutes in serum free media alone.
Western Blot Analysis. […] Peroxide activity was detected using the enhanced chemiluminescence Supersignal West Dura system (Pierce, Rockford, Ill.). […]
The utility of these antibodies for evaluating the relationship between ligand binding and CXCR4 function is dependent upon their ability to distinguish a ligand activated form of the receptor. […] Serum starved LN428 cells were treated with 1 μg/ml CXCL12 for 0 or 10 minutes and the abundance of phospho-CXCR4 was determined by western blot and immuno-localization in fixed cells. […]

[1] = 1 μg/ml CXCL12, 4 μM PMA or 10 nM EGF

T1 sequence (P61073 whole entry): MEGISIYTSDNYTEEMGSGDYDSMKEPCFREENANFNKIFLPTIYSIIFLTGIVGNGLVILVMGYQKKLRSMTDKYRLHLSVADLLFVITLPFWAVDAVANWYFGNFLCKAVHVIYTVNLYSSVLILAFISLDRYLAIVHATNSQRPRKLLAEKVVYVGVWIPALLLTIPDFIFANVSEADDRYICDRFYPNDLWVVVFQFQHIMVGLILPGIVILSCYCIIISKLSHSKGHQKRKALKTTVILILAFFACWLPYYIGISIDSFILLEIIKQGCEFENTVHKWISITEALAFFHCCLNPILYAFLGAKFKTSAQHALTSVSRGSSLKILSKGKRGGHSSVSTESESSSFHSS

B1: EGF: growth factor, ligand of the EGF receptor (protein, UniProt P01133 23-1207, looked up)
Pro-epidermal growth factor: PQHWSCPEGTLAGNGNSTCVGPAPFLIFSHGNSIFRIDTEGTNYEQLVVDAGVSVIMDFHYNEKRIYWVDLERQLLQRVFLNGSRQERVCNIEKNVSGMAINWINEEVIWSNQQEGIITVTDMKGNNSHILLSALKYPANVAVDPVERFIFWSSEVAGSLYRADLDGVGVKALLETSEKITAVSLDVLDKRLFWIQYNREGSNSLICSCDYDGGSVHISKHPTQHNLFAMSLFGDRIFYSTWKMKTIWIANKHTGKDMVRINLHSSFVPLGELKVVHPLAQPKAEDDTWEPEQKLCKLRKGNCSSTVCGQDLQSHLCMCAEGYALSRDRKYCEDVNECAFWNHGCTLGCKNTPGSYYCTCPVGFVLLPDGKRCHQLVSCPRNVSECSHDCVLTSEGPLCFCPEGSVLERDGKTCSGCSSPDNGGCSQLCVPLSPVSWECDCFPGYDLQLDEKSCAASGPQPFLLFANSQDIRHMHFDGTDYGTLLSQQMGMVYALDHDPVENKIYFAHTALKWIERANMDGSQRERLIEEGVDVPEGLAVDWIGRRFYWTDRGKSLIGRSDLNGKRSKIITKENISQPRGIAVHPMAKRLFWTDTGINPRIESSSLQGLGRLVIASSDLIWPSGITIDFLTDKLYWCDAKQSVIEMANLDGSKRRRLTQNDVGHPFAVAVFEDYVWFSDWAMPSVMRVNKRTGKDRVRLQGSMLKPSSLVVVHPLAKPGADPCLYQNGGCEHICKKRLGTAWCSCREGFMKASDGKTCLALDGHQLLAGGEVDLKNQVTPLDILSKTRVSEDNITESQHMLVAEIMVSDQDDCAPVGCSMYARCISEGEDATCQCLKGFAGDGKLCSDIDECEMGVPVCPPASSKCINTEGGYVCRCSEGYQGDGIHCLDIDECQLGEHSCGENASCTNTEGGYTCMCAGRLSEPGLICPDSTPPPHLREDDHHYSVRNSDSECPLSHDGYCLHDGVCMYIEALDKYACNCVVGYIGERCQYRDLKWWELRHAGHGQQQKVIVVAVCVVVLVMLLLLSLWGAHYYRTQKLLSKNPKNPYEESSRDVRSRRPADTEDGMSSCPQPWFVVIKEHQDLKNGGQPVAGEDGQAADGSMQPTSWRQEPQLCGMGTEQGCWIPVSSDKGSCPQVMERSFHMPSYGTQTLEGGVEKPHSLLSANPLWQQRALDPPHQMELTQ
modifications: Pro-epidermal growth factor
notes: growth factor, ligand of the EGF receptor
P338 phosphorylation stimulated [1]: not
P339 phosphorylation [1]: stimulated
P339-CXCR4 immunoreactivity compared with response to CXCL12 (4 μM PMA or 10 nM EGF): greater
